Results as given in ChEMBL document CHEMBL1137666, “Biochemical Characterization of SFC-1, a class A carbapenem-hydrolyzing beta-lactamase” (Antimicrob Agents Chemother, 2007).

Experiments:
[1] = molecular target: Carbapenem-hydrolyzing beta-lactamase KPC (Klebsiella pneumoniae, UniProt Q9F663); experiment: Inhibition of Klebsiella pneumoniae KPC-1 beta lactamase expressed in Escherichia coli DH5alpha by SDS-PAGE
[2] = substrate: CC1(C)S[C@@H]2[C@H](NC(=O)[C@H](N)c3ccccc3)C(=O)N2[C@H]1C(=O)O; settings: Enterobacter cloacae
Description: (§1) Activity of Enterobacter cloacae IMI1 beta lactamase expressed in Escherichia coli DH5alpha by SDS-PAGE

[3] = substrate: CO[C@@]1(NC(=O)Cc2cccs2)C(=O)N2C(C(=O)O)=C(COC(N)=O)CS[C@@H]21; settings: Enterobacter cloacae
Description: as §1

[4] = substrate: C[C@@H](O)[C@H]1C(=O)N2C(C(=O)O)=C(S[C@@H]3CN[C@H](C(=O)N(C)C)C3)[C@H](C)[C@H]12; settings: Enterobacter cloacae
Description: as §1

[5] = substrate: CO/N=C(\C(=O)N[C@@H]1C(=O)N2C(C(=O)O)=C(COC(C)=O)CS[C@H]12)c1csc(N)n1; settings: Enterobacter cloacae
Description: as §1

[6] = substrate: CC(=O)OCC1=C(C(=O)O)N2C(=O)[C@@H](NC(=O)Cc3cccs3)[C@H]2SC1; settings: Enterobacter cloacae
Description: as §1

[7] = substrate: C[C@H]1[C@H](NC(=O)/C(=N\OC(C)(C)C(=O)O)c2csc(N)n2)C(=O)N1S(=O)(=O)O; settings: Enterobacter cloacae
Description: as §1

[8] = substrate: CCN1CCN(C(=O)N[C@@H](C(=O)N[C@@H]2C(=O)N3[C@@H]2SC(C)(C)[C@@H]3C(=O)O)c2ccccc2)C(=O)C1=O; settings: Enterobacter cloacae
Description: as §1

[9] = substrate: CC(C)(O/N=C(\C(=O)N[C@@H]1C(=O)N2C(C(=O)[O-])=C(C[n+]3ccccc3)CS[C@H]12)c1csc(N)n1)C(=O)O; settings: Enterobacter cloacae
Description: as §1

[10] = substrate: C[C@@H](O)[C@H]1C(=O)N2C(C(=O)O)=C(SCCNC=N)C[C@H]12; settings: Enterobacter cloacae
Description: as §1

[11] = substrate: CC1(C)S[C@@H]2[C@H](NC(=O)[C@H](N)c3ccccc3)C(=O)N2[C@H]1C(=O)O; settings: Enterobacter cloacae; remark: listed apart in the source
Description: (§2) Ratio of Kcat to Km for Enterobacter cloacae IMI1 beta lactamase Escherichia coli DH5alpha by SDS-PAGE

[12] = substrate: CO[C@@]1(NC(=O)Cc2cccs2)C(=O)N2C(C(=O)O)=C(COC(N)=O)CS[C@@H]21; settings: Enterobacter cloacae; remark: listed apart in the source
Description: as §2

[13] = substrate: C[C@@H](O)[C@H]1C(=O)N2C(C(=O)O)=C(S[C@@H]3CN[C@H](C(=O)N(C)C)C3)[C@H](C)[C@H]12; settings: Enterobacter cloacae; remark: listed apart in the source
Description: as §2

[14] = substrate: CO/N=C(\C(=O)N[C@@H]1C(=O)N2C(C(=O)O)=C(COC(C)=O)CS[C@H]12)c1csc(N)n1; settings: Enterobacter cloacae; remark: listed apart in the source
Description: as §2

[15] = substrate: CC(=O)OCC1=C(C(=O)O)N2C(=O)[C@@H](NC(=O)Cc3cccs3)[C@H]2SC1; settings: Enterobacter cloacae; remark: listed apart in the source
Description: as §2

[16] = substrate: C[C@H]1[C@H](NC(=O)/C(=N\OC(C)(C)C(=O)O)c2csc(N)n2)C(=O)N1S(=O)(=O)O; settings: Enterobacter cloacae; remark: listed apart in the source
Description: as §2

[17] = substrate: CCN1CCN(C(=O)N[C@@H](C(=O)N[C@@H]2C(=O)N3[C@@H]2SC(C)(C)[C@@H]3C(=O)O)c2ccccc2)C(=O)C1=O; settings: Enterobacter cloacae; remark: listed apart in the source
Description: as §2

[18] = substrate: CC(C)(O/N=C(\C(=O)N[C@@H]1C(=O)N2C(C(=O)[O-])=C(C[n+]3ccccc3)CS[C@H]12)c1csc(N)n1)C(=O)O; settings: Enterobacter cloacae; remark: listed apart in the source
Description: as §2

[19] = substrate: C[C@@H](O)[C@H]1C(=O)N2C(C(=O)O)=C(SCCNC=N)C[C@H]12; settings: Enterobacter cloacae; remark: listed apart in the source
Description: as §2

Carbapenem-hydrolyzing beta-lactamase KPC, sequence (Q9F663 whole entry): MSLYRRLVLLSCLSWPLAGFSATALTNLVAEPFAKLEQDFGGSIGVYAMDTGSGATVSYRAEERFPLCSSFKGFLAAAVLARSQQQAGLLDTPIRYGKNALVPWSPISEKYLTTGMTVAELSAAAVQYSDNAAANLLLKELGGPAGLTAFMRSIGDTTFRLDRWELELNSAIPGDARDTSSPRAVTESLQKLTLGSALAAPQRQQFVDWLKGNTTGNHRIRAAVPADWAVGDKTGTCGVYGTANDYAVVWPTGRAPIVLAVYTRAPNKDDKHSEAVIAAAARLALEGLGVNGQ

Molecule: C[C@]1(Cn2ccnn2)[C@H](C(=O)O)N2C(=O)C[C@H]2S1(=O)=O [TAZOBACTAM]
- IC50 [1]: 374 nM

B1: IMI-1 (Enterobacter cloacae), Q46991 (protein)
chain: MSLNVKPSRIAILFSSCLVSISFFSQANTKGIDEIKDLETDFNGRIGVYALDTGSGKSFSYKANERFPLCSSFKGFLAAAVLKGSQDNQLNLNQIVNYNTRSLEFHSPITTKYKDNGMSLGDMAAAALQYSDNGATNIILERYIGGPEGMTKFMRSIGDKDFRLDRWELDLNTAIPGDERDTSTPAAVAKSLKTLALGNILNEREKETYQTWLKGNTTGAARIRASVPSDWVVGDKTGSCGAYGTANDYAVVWPKNRAPLIISVYTTKNEKEAKHEDKVIAEASRIAIDNLK
- Km [2]: 780 µM
- kcat [2]: 190 s⁻¹
- Km [3]: 45 µM
- kcat [3]: 0.3 s⁻¹
- Km [4]: 26 µM
- kcat [4]: 10 s⁻¹
- Km [5]: 190 µM
- kcat [5]: 3.4 s⁻¹
- Km [6]: 130 µM
- kcat [6]: 120 s⁻¹
- Km [7]: 93 µM
- kcat [7]: 51 s⁻¹
- Km [8]: 13 µM
- kcat [8]: 6.1 s⁻¹
- Km [9]: 270 µM
- kcat [9]: 0.0068 s⁻¹
- Km [10]: 170 µM
- kcat [10]: 89 s⁻¹
- kcat/Km [11]: 240000 M⁻¹ s⁻¹
- kcat/Km [12]: 6700 M⁻¹ s⁻¹
- kcat/Km [13]: 380000 M⁻¹ s⁻¹
- kcat/Km [14]: 18000 M⁻¹ s⁻¹
- kcat/Km [15]: 920000 M⁻¹ s⁻¹
- kcat/Km [16]: 550000 M⁻¹ s⁻¹
- kcat/Km [17]: 470000 M⁻¹ s⁻¹
- kcat/Km [18]: 24 M⁻¹ s⁻¹
- kcat/Km [19]: 520000 M⁻¹ s⁻¹
